Experimental data taken from US7560245B2, “Luciferase and methods for measuring intracellular ATP using the same” (Kikkoman Corporation, priority 1997, dated 2009).
“And” between values parts separate entries of the source, which are not always exact repeats. Equal entries are not always repeated.

Key:
[1] = Surfactant resistance: change of light emission with time, 0.4% benzalkonium chloride; assay type: biochemical; details: for decay of light emission with time: FIG. 2 and 3
Experimental: (§1) Enzyme samples were obtained by preparing luciferase samples derived from various firefly species using enzyme-diluted solution (1 mM EDTA, 1 mM 2-mercaptoethanol, 5% glycerol, 50 mM HEPES, (pH7.5)) to achieve 0.5 MLU/ml concentration.
(§2) 50 μl of 0.4% benzalkonium chloride (25 mM Tricine at pH 7.75) and then 50 μl of the enzyme sample were added to 100 μl of substrate solution (4 mM ATP, 0.4 mM luciferin, 10 mM magnesium sulfate, 50 mM HEPES (pH 7.5)). After the solution was stirred for 5 seconds, the light emission was measured every second using Berthold Lumat LB-9501 for 1 minute.
Along the vertical axis in this figure, the relative ratio of the light emission was plotted with the initial amount of light emitted considered to be 100% upon use of 25 mM Tricine (pH 7.75) instead of 0.4% benzalkonium chloride.
(§3) To compare surfactant resistance of mutant luciferase with that of known luciferase, changes in emission with time were measured according to the aforementioned methods of measuring surfactant resistance.

[2] = Comparison of emission rate (remaining activity) with 0.4% benzalkonium chloride; assay type: biochemical; details: emission with 0.4% benzalkonium chloride divided by control (25 mM Tricine)
Experimental: as §1, §2
The influence of the enzyme solution, substrate solution and benzalkonium chloride used when measuring change with time, on the measurement values taken under actual emission measurement conditions, was examined.
In addition, the emission rate (remaining activity) was calculated by dividing the light emission measured in the presence of 0.4% benzalkonium chloride by a control value. Here the control value was the light emission upon use of 25 mM Tricine at pH 7.75 instead of 0.4% benzalkonium chloride.

[3] = Comparison of IC50: benzalkonium chloride concentration inactivating luciferase by 50%; assay type: biochemical; details: 10 minutes contact at room temperature, 0.01 to 0.1% benzalkonium chloride
Experimental: Benzalkonium chloride and various luciferases were contacted with each other for 10 minutes. Then the benzalkonium chloride concentration (IC50), at which activity is inactivated by 50% was determined. Equal amounts of luciferase solution prepared at this concentration and 0.01 to 0.1% benzalkonium chloride were mixed, and then allowed to stand for 10 minutes at room temperature. Subsequently, 100 μl of substrate solution was added to the mixture. Immediately after addition, the light emission was measured using Berthold Lumat LB-9501.

E. coli ATCC 25922 = test: Detection of intracellular ATP, 0.25% BAC extraction reagent; assay type: cell-based, Escherichia coli; details: for Relative ratio (%): TCA extraction method = 100%
Experimental: (§4) A standard technique used herein was TCA extraction method wherein intracellular ATP is extracted using trichloroacetic acid (TCA) and the amount of ATP extracted is measured using luciferin-luciferase luminescence reaction. TCA extraction method is excellent in extraction efficiency. Further in TCA extraction method no inhibition of luminescence reaction is caused by TCA because emission is measured after the sample containing TCA is diluted 1:100. Because of this dilution, however, TCA extraction method is complicated and can cause a decrease in the measuring sensitivity. Benzalkonium chloride (BAC, Japanese Pharmacopoeia) was used. ATP extraction reagent was prepared by dissolving this surfactant at 0.25% concentration into 25 mM Tricine (pH 7.75). Four strains, Escherichia coli (ATCC 25922), Staphylococcus aureus (ATCC 25923), Pseudomonas aeruginosa (ATCC 27853) and Enterococcus faecalis (ATCC 29212) were used. In standard techniques, a sample, undiluted solution, was prepared by culturing the prescribed microorganisms on a normal broth medium (produced by Eiken chemical Co., Ltd.) at 35° C. overnight. In the method of the present invention, a sample diluted solution was prepared by diluting an undiluted solution of the culture fluid to 1:100 with sterile water. Luminescence reagent was prepared by adding various luciferase to solution containing 0.15 mM luciferin, 6 mM EDTA, 15 mM magnesium acetate, 0.2 mM dithiothreitol, 0.5% BSA and 25 mM HEPES (pH 7.75). The amount of luciferase to be added was prepared such that the light emission produced when 100 μl of 2×10^−8 M ATP standard solution was added to 100 μl of the luminescence reagent would be the same amount of the light emission produced when a luminescence reagent attached to Luciferase LU (Kikkoman Corporation) was used. ATP extraction reagent 100 μl was added to 100 μl of a sample. The solution was allowed to stand for 20 seconds at room temperature. Then 100 μl of the luminescence reagent was added to this solution. Immediately after addition, the light emission was measured using Lumat LB-9501 produced by Berthold. 10% trichloro acetate solution 100 μl was added to 100 μl of a sample and the solution was allowed to stand for 1 minute. 25 mM Tricine (pH 7.75) 9.8 ml was added to this extract, and then the extract was well stirred. 25 mM Tricine (pH 7.75) and 100 μl of a luminescence reagent attached to CheckLite LU (produced by Kikkoman Corporation) were added to 100 µl of the sample. Immediately after addition, the light emission was measured using Lumat LB-9501 produced by Berthold. The relative ratio of the light emissions obtained by the use of the luminescence reagents using various luciferase types is also shown in these tables. Here the light emission obtained by the standard technique (TCA extraction method) was defined as 100%.

S. aureus ATCC 25923 = test: as above; assay type: cell-based, Staphylococcus aureus; details: for Relative ratio (%): TCA extraction method = 100%
Experimental: as §4

P. aeruginosa ATCC 27853 = test: as above; assay type: cell-based, Pseudomonas aeruginosa; details: for Relative ratio (%): TCA extraction method = 100%
Experimental: as §4

E. faecalis ATCC 29212 = test: as above; assay type: cell-based, Enterococcus faecalis; details: for Relative ratio (%): TCA extraction method = 100%
Experimental: as §4

[4] = tested on: Escherichia coli, Staphylococcus aureus, Pseudomonas aeruginosa and Enterococcus faecalis; test: Detection of intracellular ATP, summary over the four strains; assay type: cell-based; details: 0.25% BAC extraction reagent
Experimental: as §4, with “In standard techniques, a sample, undiluted solution, was prepared by culturing the prescribed microorganisms on a normal broth medium (produced by Eiken chemical Co., Ltd.) at 35° C. overnight. In the method of the present invention, a sample diluted solution was prepared by diluting an undiluted solution of the culture fluid to 1:100 with sterile water.” left out, “ATP extraction reagent 100 μl was added to 100 μl of a sample. The solution was allowed to stand for 20 seconds at room temperature.” left out, “10% trichloro acetate solution 100 μl was added to 100 μl of a sample and the solution was allowed to stand for 1 minute. 25 mM Tricine (pH 7.75) 9.8 ml was added to this extract, and then the extract was well stirred.” left out, “Here the light emission obtained by the standard technique (TCA extraction method) was defined as 100%.” left out

[5] = Comparison of emission rate (remaining activity) with 0.4% benzalkonium chloride; assay type: biochemical; details: for Light emission (RLU) Without extraction reagent: 25 mM Tricine pH 7.75 instead of 0.4% benzalkonium chloride; for Light emission (RLU) Without extraction reagent / Light emission (RLU) With extraction reagent: 5 seconds waiting, 3 seconds measuring; for Light emission (RLU) With extraction reagent: 0.4% benzalkonium chloride
[6] = Surfactant resistance: change of light emission with time, 0.8% benzethonium chloride; assay type: biochemical; details: FIG. 4
Experimental: as §1
[…] After the solution was stirred for 5 seconds, the light emission was measured every second using Berthold Lumat LB-9501 for 1 minute.
as §3

Molecule: North American firefly: luciferase derived from North American firefly, a commercial product (Sigma, L-9506) [reference compound]
- initial light emission ([1]; FIG. 2): low in the initial light emission
- decay of light emission with time [1]: decayed rapidly
- Emission rate (remaining activity) [2]: 21.6%
- IC50 (benzalkonium chloride concentration at which activity is inactivated by 50%) [3]: 0.014%
- Measured value (RLU) (E. coli ATCC 25922): 153 RLU
- Relative ratio (%) (E. coli ATCC 25922): (0.1) %
- Measured value (RLU) (S. aureus ATCC 25923): 163 RLU
- Relative ratio (%) (S. aureus ATCC 25923): (0.1) %
- Measured value (RLU) (P. aeruginosa ATCC 27853): 553 RLU
- Relative ratio (%) (P. aeruginosa ATCC 27853): (0.3) %
- Measured value (RLU) (E. faecalis ATCC 29212): 113 RLU
- Relative ratio (%) (E. faecalis ATCC 29212): (0.1) %
- emission of the luminescence reagent [4]: No emission was observed
- Light emission (RLU) Without extraction reagent [5]: 452563 RLU
- Light emission (RLU) With extraction reagent [5]: 97790 RLU
- luciferase activity (remaining) ([5]; in the presence of 0.1% benzalkonium chloride): about 20%

B1: HIK: Polypeptide of SEQ ID NO:6; HEIKE firefly luciferase with Ala217 substituted by Ile and Glu490 by Lys (protein, listed as Luciola lateralis)
chain: MENMENDENIVYGPEPFYPIEEGSAGAQLRKYMDRYAKLGAIAFTNALTGVDYTYAEYLEKSCCLGEALKNYGLVVDGRIALCSENCEEFFIPVLAGLFIGVGVAPTNEIYTLRELVHSLGISKPTIVFSSKKGLDKVITVQKTVTAIKTIVILDSKVDYRGYQSMDNFIKKNTPQGFKGSSFKTVEVNRKEQVALIMNSSGSTGLPKGVQLTHENIVTRFSHARDPIYGNQVSPGTAILTVVPFHHGFGMFTTLGYLTCGFRIVMLTKFDEETFLKTLQDYKCSSVILVPTLFAILNRSELLDKYDLSNLVEIASGGAPLSKEIGEAVARRFNLPGVRQGYGLTETTSAIIITPEGDDKPGASGKVVPLFKAKVIDLDTKKTLGPNRRGEVCVKGPMLMKGYVDNPEATREIIDEEGWLHTGDIGYYDEEKHFFIVDRLKSLIKYKGYQVPPAELESVLLQHPNIFDAGVAGVPDPIAGELPGAVVVLKKGKSMTEKEVMDYVASQVSNAKRLRGGVRFVDEVPKGLTGKIDGKAIREILKKPVAKM
- decay of light emission with time [1]: decayed more slowly than that of the HEIKE I mutant
- decay of light emission with time [6]: more slowly than that of HEIKE I mutant
- Emission rate (remaining activity) [2]: 89.3%
- IC50 (benzalkonium chloride concentration at which activity is inactivated by 50%) [3]: 0.032%
- Measured value (RLU) (E. coli ATCC 25922): 97073 RLU
- Relative ratio (%) (E. coli ATCC 25922): (73.1) %
- Measured value (RLU) (S. aureus ATCC 25923): 76533 RLU
- Relative ratio (%) (S. aureus ATCC 25923): (58.8) %
- Measured value (RLU) (P. aeruginosa ATCC 27853): 131134 RLU
- Relative ratio (%) (P. aeruginosa ATCC 27853): (78.0) %
- Measured value (RLU) (E. faecalis ATCC 29212): 7914 RLU
- Relative ratio (%) (E. faecalis ATCC 29212): (63.7) %
- emission of the luminescence reagent [4]: more intense than that from wild-type HEIKE luciferase and thermostable luciferase
- Light emission (RLU) Without extraction reagent [5]: 386429 RLU
- Light emission (RLU) With extraction reagent [5]: 345159 RLU

B2: HLK: Polypeptide of SEQ ID NO:4; HEIKE firefly luciferase with Ala217 substituted by Leu and Glu490 by Lys (protein, listed as Luciola lateralis)
chain: MENMENDENIVYGPEPFYPIEEGSAGAQLRKYMDRYAKLGAIAFTNALTGVDYTYAEYLEKSCCLGEALKNYGLVVDGRIALCSENCEEFFIPVLAGLFIGVGVAPTNEIYTLRELVHSLGISKPTIVFSSKKGLDKVITVQKTVTAIKTIVILDSKVDYRGYQSMDNFIKKNTPQGFKGSSFKTVEVNRKEQVALIMNSSGSTGLPKGVQLTHENLVTRFSHARDPIYGNQVSPGTAILTVVPFHHGFGMFTTLGYLTCGFRIVMLTKFDEETFLKTLQDYKCSSVILVPTLFAILNRSELLDKYDLSNLVEIASGGAPLSKEIGEAVARRFNLPGVRQGYGLTETTSAIIITPEGDDKPGASGKVVPLFKAKVIDLDTKKTLGPNRRGEVCVKGPMLMKGYVDNPEATREIIDEEGWLHTGDIGYYDEEKHFFIVDRLKSLIKYKGYQVPPAELESVLLQHPNIFDAGVAGVPDPIAGELPGAVVVLKKGKSMTEKEVMDYVASQVSNAKRLRGGVRFVDEVPKGLTGKIDGKAIREILKKPVAKM
- decay of light emission with time [1]: slower decay in the light emission
- improvement of initial light emission ([1]; compared with HEIKE L mutant, FIG. 3): about 20%
- decay of light emission with time [6]: slower decay in light emission than that of HEIKE L mutant
- Emission rate (remaining activity) [2]: 101.7% and ~100%
- IC50 (benzalkonium chloride concentration at which activity is inactivated by 50%) [3]: 0.035%
- Measured value (RLU) (E. coli ATCC 25922): 87981 RLU
- Relative ratio (%) (E. coli ATCC 25922): (66.3) %
- Measured value (RLU) (S. aureus ATCC 25923): 72182 RLU
- Relative ratio (%) (S. aureus ATCC 25923): (55.4) %
- Measured value (RLU) (P. aeruginosa ATCC 27853): 131815 RLU
- Relative ratio (%) (P. aeruginosa ATCC 27853): (78.4) %
- Measured value (RLU) (E. faecalis ATCC 29212): 7998 RLU
- Relative ratio (%) (E. faecalis ATCC 29212): (64.4) %
- emission of the luminescence reagent [4]: more intense than that from wild-type HEIKE luciferase and thermostable luciferase
- Light emission (RLU) Without extraction reagent [5]: 390289 RLU
- Light emission (RLU) With extraction reagent [5]: 396764 RLU
